Measurements reported in patent publication US20220195057A1 (LANOVA MEDICINES, published 2022).
Positions count from the first letter of the chain named.

B1: LM-108-vc-MMAE (other)
VH: EVQLVESGGGLVQPGGSLKLSCAASGFTFNTYAMNWVRQASGKGLEWVARIRSKANNYATYYADSVKDRFTISRDDSKNTLYLQMNNLKTEDTAVYYCVRDRSRGEDYAMDYWGQGTLVTVSS
VL: DIVMTQSPLSLPVTPGEPASISCRSSKSLLHSNANTYLYWFLQKPGQSPQLLIYRMSNLASGVPDRFSGSGSGTAFTLKISRVEAEDVGVYYCMQHLEYPFTFGQGTKLEIK
modifications: vc-MMAE (monomethyl auristatin E) conjugated to the antibody; site and drug number not stated
B2: 88D2C6 (fused to human IgG1 constant regions, with ADCC-activating mutations in Fc) (antibody, V domains shown)
VH: EVQLVETGGGLVQPKGSLKLSCAASGFTFNPNAMNWVRQAPGKGLEWVARIRSKSNNYATYYADSVKDRFTISRDDSQSMLYLQMNNLKTEDTAMYYCVRGKDDGYRHYAMDYWGQGTSVTVSS
VL: DIVMTQAAPSVPVTPGESVSISCRSSKSLLHSNGNTYLYWFLQRPGQSPQLLIYRMSNLASGVPDRFSGSGSGTAFTLRISRVEAEDVGVYYCMQHLEYPFTFGAGTKLELK
B3: 137-H2L2 (antibody, V domains shown)
VH: B1 VH with A49G, L81A
VL: B1 VL
notes: Humanized 137D1H10
B4: 137-H2L3 (antibody, V domains shown)
VH: B1 VH with A49G, L81A
VL: B1 VL with A19V
notes: Humanized 137D1H10
B5: 137-H3L2 (LM-108) (antibody, V domains shown)
VH: B1 VH
VL: B1 VL
notes: Humanized 137D1H10; Detected with anti-human IgG
B6: 137-H3L3 (antibody, V domains shown)
VH: B1 VH
VL: B1 VL with A19V
notes: Humanized 137D1H10
B7: 88-H2L2 (antibody, V domains shown)
VH: B2 VH with T7S, K15G, P41S, A49G, Q78K, S79N, M80T, L81A, M95V, S119T
VL: B1 VL with Q105G, L109V
notes: Humanized 88D2C6
B8: 88-H1L2 (antibody, V domains shown)
VH: EVQLVESGGGLVQPGGSLKLSCAASGFTFNPNAMNWVRQASGKGLEWVGRIRSKSNNYATYYADSVKDRFTISRDDSKNTAYLQMNSLKTEDTAVYYCTRGKDDGYRHYAMDYWGQGTTVTVSS
VL: B1 VL with Q105G, L109V
notes: Humanized 88D2C6
B9: 88-H1L3 (antibody, V domains shown)
VH: B8 VH
VL: B1 VL with S7A, A19V, Q105G
notes: Humanized 88D2C6
B10: 88-H2L3 (antibody, V domains shown)
VH: B8 VH with S87N, T99V
VL: B1 VL with S7A, A19V, Q105G
notes: Humanized 88D2C6
B11: 88-H3L2 (antibody, V domains shown)
VH: B8 VH with G49A, A81L, S87N, T99V
VL: B1 VL with Q105G, L109V
notes: Humanized 88D2C6
B12: 88-H3L3 (antibody, V domains shown)
VH: B8 VH with G49A, A81L, S87N, T99V
VL: B1 VL with S7A, A19V, Q105G
notes: Humanized 88D2C6
B13: 88-xi (antibody, V domains shown)
VH: B2 VH
VL: B2 VL
notes: also called 88D2C6; chimeric 88D2C6
B14: 137-xi (antibody, V domains shown)
VH: B1 VH with G15K, A23T, S41P, K78Q, N79R, T80I, T90A, V95M, L118S
VL: B2 VL
notes: also called 137D1H10; chimeric 137D1H10

Key:
[1] = target: human chemokine (C-C motif) receptor 8 (CCR8) protein (human) (UniProt P51685); experiment: flow cytometry, low-CCR8-expressing Jurkat cells
[2] = target: human chemokine (C-C motif) receptor 8 (CCR8) protein (human) (UniProt P51685); experiment: flow cytometry, high-CCR8-expressing U2OS cells
[3] = target: T1, human chemokine (C-C motif) receptor 8 (CCR8) protein (human, UniProt P51685 1-355); experiment: cell-based or functional assay
[4] = target: T1, human chemokine (C-C motif) receptor 8 …; experiment: cell binding, CCR8-expressing CHO-K1 cells, curve fit; design: LogEC50: unit not given here
[5] = target: T1, human chemokine (C-C motif) receptor 8 …; experiment: cell binding, CCR8-expressing U2OS cells, curve fit; design: LogEC50: unit not given here
[6] = target: T1, human chemokine (C-C motif) receptor 8 …; experiment: flow cytometry, high-CCR8-expressing U2OS cells
From the text: The cells used were U2OS (U2OS/H_CCR8).

[7] = target: T1, human chemokine (C-C motif) receptor 8 …; experiment: flow cytometry, low-CCR8-expressing Jurkat cells
From the text: The cells used were Jurkat engineering cells (Jurkat/H_CCR8).

[8] = target: T1, human chemokine (C-C motif) receptor 8 …; experiment: flow cytometry, CCR8-expressing HEK293 cells
Summary of the method: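 Cell binding was measured by flow cytometry on HEK293 cells overexpressing human CCR8, alongside parental HEK293 cells. Antibodies were titrated from 200 nM in 4-fold dilutions over 12 points and incubated with the cells at 4° C for 60 minutes. Cells were washed twice with FACS buffer, stained with Alexa Fluor 647 goat anti-human IgG at 4° C for 60 minutes, washed twice and analysed. The read-out is binding EC50.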

[9] = target: T1, human chemokine (C-C motif) receptor 8 …; experiment: cell binding, CCR8-expressing CHO-K1 cells, curve fit; design: LogEC50: unit not given here; remark: listed apart in the source
[10] = target: T1, human chemokine (C-C motif) receptor 8 …; experiment: cell binding, CCR8-expressing U2OS cells, curve fit; design: LogEC50: unit not given here; remark: listed apart in the source

| Molecule | Bottom [4] | LogEC50 [4] | Span [4] | Top [4] | Bottom [5] | LogEC50 [5] | Span [5] | Top [5] | Bottom [9] | LogEC50 [9] | Span [9] | Top [9] | Bottom [10] | LogEC50 [10] | Span [10] | Top [10] | also measured |
| --- | --- | --- | --- | --- | --- | --- | --- | --- | --- | --- | --- | --- | --- | --- | --- | --- | --- |
| isotype control (antibody) |  |  |  |  |  |  |  |  |  |  |  |  |  |  |  |  | Max (MFI) [1]: 134 MFI; Max (MFI) [2]: 215 MFI |
| B1 |  |  |  |  |  |  |  |  |  |  |  |  |  |  |  |  | cytotoxicity IC50 (Cell-Titer-Glo viability, 96 hours) [3]: 0.528 nM |
| B2 |  |  |  |  |  |  |  |  |  |  |  |  |  |  |  |  | ADCC EC50 (CCR8-overexpressing CHO K1 cells) [3]: 0.0174 nM |
| B3 | 2550 | -0.789 | 26800 | 29300 | 915 | -0.842 | 25300 | 26300 |  |  |  |  |  |  |  |  |  |
| B4 | 2240 | -0.505 | 27900 | 30200 | 1320 | -0.484 | 25900 | 27300 |  |  |  |  |  |  |  |  |  |
| B5 | 4260 | -0.684 | 28900 | 33200 | 2060 | -0.69 | 30200 | 32300 |  |  |  |  |  |  |  |  | ADCC EC50 with primary human PBMCs (cytotoxicity detection) [3]: 0.002 nM; EC50 [6]: 0.25 nM; EC50 [7]: 0.212 nM; EC50 [8]: 1.03 nM |
| B6 | 3820 | -0.754 | 29600 | 33400 | 2100 | -0.717 | 29800 | 31900 |  |  |  |  |  |  |  |  |  |
| B7 |  |  |  |  |  |  |  |  | 2490 | -0.639 | 30300 | 32800 | 2760 | -0.724 | 25600 | 28300 |  |
| B8 |  |  |  |  |  |  |  |  | 2670 | -0.751 | 30100 | 32800 | 2110 | -0.678 | 26800 | 28900 |  |
| B9 |  |  |  |  |  |  |  |  | 2140 | -0.519 | 29800 | 31900 | 1540 | -0.58 | 26100 | 27600 |  |
| B10 |  |  |  |  |  |  |  |  | 2280 | -0.546 | 29300 | 31600 | 1530 | -0.512 | 24200 | 25800 |  |
| B11 |  |  |  |  |  |  |  |  | 3940 | -0.686 | 28600 | 32500 | 2830 | -0.684 | 24600 | 27400 |  |
| B12 |  |  |  |  |  |  |  |  | 3470 | -0.583 | 28700 | 32200 | 1620 | -0.629 | 25800 | 27400 |  |
| B13 |  |  |  |  |  |  |  |  | 3630 | -0.655 | 30300 | 33900 | 1030 | -0.692 | 28600 | 29700 |  |
| B14 | 3030 | -0.779 | 31900 | 34900 | 2170 | -0.605 | 31300 | 33400 |  |  |  |  |  |  |  |  |  |
